According to the nanobody polyreactivity screen of Harvey et al. (2022):

Test: yeast display, Sf9 membrane polyspecificity reagent, FACS + sequencing; frameworks hold sequencing errors
Outline: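 Galactose-induced (36–48 hours) yeast carrying a synthetic nanobody display library were exposed to 10% biotinylated, detergent-solubilized Sf9 membrane reagent at 4 °C for 1 hour. FACS followed streptavidin microbead enrichment, using low and high (top ~1%) gates for expression (anti-HA) and reagent binding (streptavidin). Colony PCR, MiSeq 2 × 250 sequencing and CDR-length filtering followed. Labels for polyreactivity reflect the gate of origin.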

Sequence | polyreactivity (PSR sort gate)
QVQLEESGGRLVQAGGSLRLSCAASGGIFADYAMGWDRPAPGKERELVADISARGGSTYYADSVKGRFTISRDNAKNTVYLQMNSLKPEDTAVYYCAADALGYDYYYWGQGTQVTVSS | low polyreactivity
QVQLVESGGGLVQAGGSLRLSCAASGFIFRYYAMGWYRQAPGKERELVAAISWSGGSTYYADSVKGRFTISRDNAKNTVYLQMNSLKPEDTAVYYCAADRYAILFYAEDYWGQGTQVTVSS | low polyreactivity
QVQLVESGGGLVQAGGSLRLSCAASGITFGWNAMGWYRQAPGKEWELVAAITEDGYSTYYADSVKGRFTISRDNEKNTVYLQMNSLKPEDTAVYYCAAEYYDVYTYVQYDSWGQGTQVTVSS | high polyreactivity
QVQLVESGGGLVQAGGSLRLSFAASGRTFTYNAMGVYRQAPGKERELVAAMTYRGGSTYYADSVKGRFTISRDNAKNTVYLQMNSLKPEDTAVYYCAARVSYYRYNTPHYYYWGQGTQVTVSS | high polyreactivity
QVQLVESGGGLVQAGGSLRLSCAASGRIFKWNAMGWYRQAPGKERELVAAISTSGGNTYYADSVKGRFTISRDYAKNTVYLQMNSLKPEDTAVYYCAATYPNSLRQVGYWGQGTQVTVSS | high polyreactivity
QVQLVESGGRLVQAGGSLRLSCAASGFTFKYYAMGWYTQAPGKERELVAAIRRSAGSTNYADSVKGRFTISRDNAKNTVYLQMNSLKPEDTAVYYCNTVGTRQPMDYWGQGTQVTVSS | high polyreactivity
QVQLVESGGGLVQAGGSLRLSCAASGSTFYRNAMGWYRQAPGKERELVAAISRRSGTTYYADSVKGRFTISRDNAKNTVYLQMNSLKPEDTSVYYCATVRGGYDYWGQGTQVTVSS | high polyreactivity
QVQLVESGGGFFQAGGSLRLSCAASGSTFGYYTMGWYRQAPGKERELVAAISSGGSRTNYADSVKGRFTISRDNAKNTVYLQMNILKPEDTAVYYCARQSYGGTNRYYYWGQGTQVTVSS | high polyreactivity
QVQLVESGGGLVQAGGSLRLSCAASGFTIYSYAMGWYRQAPGKERELVAAISSGGSTYYADSVKGRFTISRDNAKNTVYLQMNSLKPEDTAVYYCARRYQVVWYYKYDYWGQGTQVTVSS | high polyreactivity
QVQLVESGGGLVQAGGSLRLSCAASGITFDYYTMGWYRQAPGKERELVAGITRGGRTYYADSVKGRFTISRDNAKNTVYLQMNSLKPEDTAVYYCNADPWWRFDYWGQGTQVTVSS | low polyreactivity
QVQLVESGGGLVQAGGSLRLSCAASGRIFQYYAMGWYRQAPGKERELVAAISRGGSTNYADSVKGRFTISRDNAKNTVYLQMNSLKPEDTAVYFCAADEYRYYFYRAGIGFDYWGQGTQVTVSS | low polyreactivity
QVQLVESGGGLVQAGGSLRLSCAASGSIFWGYAMGWYRQAPGKERELVAAIRVSGGSTYYADSVKGRFTISRDNAKNTVYLQMNSLKPEDTAVYYCARDTWGGFSSADNYWGQGTQVTVSS | high polyreactivity
QVQLVESGGGLVQAGGSLRLSCAATGSIFIRYAIGWYRHEPGKERELVAAITSTGSTSYADSVKWRFTISRDNAKNTVYLQMNSLKPEDTAVYYCAAAGFWHGYFGYGYWGQGTQVTVSS | low polyreactivity
QVQLVESGGGLVQAGGSLRLSCAASGSIFYVYAMGWYRQAPGKERELVAAINTSSGDTYYADSVKGRFTISRDNAKNTVYLQMNSLKPEDTAVYYCNARTRSSYTIGSYLLSYDYWGQGTQVTVSS | high polyreactivity
QVQLVESGGGLVQAGGSLRLSCAASGSTFGGNAMGWYRQAPGKERELVAAISSSGGSTYYADSVKGRFTISRDNAKITVYLQMNSLKPEDTAVYYCAALYHWTYDYWGQGTQVTVSS | low polyreactivity
QVQLVESGGGLVQAGGSLRLSCAASGRIFVLYAMGWYRQAPGKERELVAAISTSGGSTYYADSVKGRFTISRDNAKNTYYLQMNSLKPEDTAVYYCAADRSARFLFIQYYPYGMDYWGQGTQVTVSS | high polyreactivity
QVQLVESGGGLVQAGGSLRLSCAASGSIFFAYDMGWYRQAPGKERELVAAINFDGTSTYYADSVKGRFTISRDNAKNTVYLQMNTLKPEDTAVYYCNKRVSPTYKGQYVYWGQGTQVTVSS | low polyreactivity
QVQLVESGGGLVQAGGSLRLSCAASGRTLSGYAMGWYRQAPGKERELVAAISRRGGRTYYADSVKGRFTISRDNAKNTVYLQMNSLKPEDTAVYYCAAQVYTKTGDWQFYYWGQGTQVTVSS | high polyreactivity
QVQLVESGGGLVQAGGSLRLSCAASGRILDYNAMGWYRQAPGKERELVAAITWRGGSTYYADSVKGRFTISRDNAKNTVYLQMNSLKPEDTAVYYCNARWSKTAHTRFGYWGQGTQVTVSS | low polyreactivity
QVQLVESGGGLVQAGGSLRLSCAASGRIFPYYAKGWYRQAPGKERELVAAINSGGSTYYADSVKGRFTISRDNAQNTVYLQMNSLKPEDTAVYYCIADVLYEDGFFWDDYWGQGTQVTVSS | low polyreactivity
QVHLHETGGGLVQAGGSLRLSCAASGTISVTYNMGWYRQAPGKEREFVAGNSTGATTNYADSVKGRFTISRDNANNTVYLQMNSLKPEDTAVYYCAAHIYRKDHFYYWGQGTQVTVSS | low polyreactivity
QVQLQDSGGRLVQAGGSLRLSCAASGYIFGSCSMGWFRQSPGKVRELVATINNGSSTYYADSVKGRITISRDNAKNSVYLQMNSLKPEDTAVYYCAVSLYRLTFFYYWGQGNQVTVSS | high polyreactivity

Sequence | polyreactivity (PSR sort gate)
QVKLVESGGGLVQAGGSLRLSCAASGRTFYLYAMGWYRQAPGKERELVARITSGGTTNYADSVKGRFTISRDNAKNTVYLQMNSLKPEDTAVYYCAADPEGLGRVASRYFHFDYWGQGTQVTVSS | low polyreactivity
QVQLEESGGGLVQAGGSLRLSCAASGSIFVGNVMGWYRQAPGKERELVAAITYSGGSTYYADSVKGRFTISRDNAKNTVYLQMNSLKPEDTAVYYCAKPSRVSIGYDYWGQGTQVTVSS | low polyreactivity
QVQLVESGGGLVQAGGSLRLSCAASGYILPKNTMGWYRQAPGKERELVAAISWSGGSTFYADSVKGRFTISRDNAKNTVYLQMNSLKPEDTAVYYCAADRSWSWYYRYDYWGQGTQVTVSS | low polyreactivity
QVQLVESGGGLVQAGGSLRLSCAASGRTFYSNAMGWYRQAPGKERELVAAITSGGSTNYADSVKGRFTISRDNAKNTVYLQMNSLKPEDSAVYYCAVRGYWTIRSRRYYYWGQGTQVTVSS | high polyreactivity
QVQLVESGGGLVQAGGSLRLSCAASGFTFIRYARGWYRPAPGKERELVAAIRGTGTSTYYADSVKGRFTISRDNAKNTVYLQMNSLKPEDTAVDYCNTVAGRSPYTRYDYWGQGTQVTVSS | low polyreactivity
QVQLVESGGGLVQAGGSLRLSCAASGSIFQVYAMGWYRQAPGKEREFVAAISYSGGGTYYADSVKGRFTISRDNAKNTVYLQMNSLKPEDTAVYYCAADVSGWEYDYWGQGTQVTVSS | low polyreactivity
KVQLVESGGGLVQAGGSLRLSCAASGSIFPSYVMGWYRQAPGKERELVAAITKSTGTTYYADSVKGRFTISRDNAKNTVYLQMNSLKPEDTAVYYCNAPYWFSPGYGGFEFGYDYWGQGTQVTVSS | low polyreactivity
QVQLVDSGGGLVQAGGSLRLSCAASGFTFSTNAMGWYRQAPGKERELVAGITSSGGNTYYADSVKGRFTISRDNAKNTVYLQMNSLKPEDTAVYYCAKRRNYVAYDYWGQGTQVTVSS | high polyreactivity
QVQLVESGGGLVQAGGSLRLSCAASGFIFYTYVMGWYRQAPGKERELVAAISGTGGRTYYADSVKGRFTISRDNAKNTVYLQMNSLKPEDTAVYYCAAVSRYATGGGYWGQGTQVTVSS | high polyreactivity
QVQLVESGGGLVQAGGSLRLSCAASGRIFWRYAMGWYRQAPGKERELVAAISSGGSTTYADSVKGRFTISRDNAKNTVYLQMNSLKPEDTAVYYCNARQYTRPYAFDYWGQGTQVTVSS | low polyreactivity
QVQLVESGGGLVQAGGSLRLSCAASGLIFRPYAIGWYRQAPGKERELVAGITSGGNTDYADSVKGRFTISRDNAKNTVYLQMNSLKPEDTAVYYCADYFIYGYWGQGTQVTVSS | low polyreactivity
QVQLVESGGGLVQAGGSLRLSCDASGSIFYSKAMGWYRQAHGKERELVAAITVGGGRTYYADSVKGRFTISRDNAKNTVYLQMNSLNPEDTAVYYCAADSHASTYDYWGQGTQVTVSS | low polyreactivity
QVQLVESAGGLVQEGGILRLICADSGRIVYRYAMGWYRQAPGKERELVAAISRRGGSTYYEDSVKGRFTISRDNAKYTVIFQMNSLKAVDTAVYYFARYHWYYRVSKSDSWGQGTQVPVSS | high polyreactivity
QVQLVESGGGLVQAGGSLRLICAASGSTQSPYAMGWYRQAPGKERDFVAAISTSGVSTYYADSVKGRFTISRDNAKNTVDLQMNSLKPVDTAVYYCATRYYIYGSTLKLYDYWGQGTQVTVSS | high polyreactivity
QVQLVESGGGLVQEGGSLRLICAASGRIFRYYAMGWYRQAPGKERELVASITYSGGRTNYADSVKGRFTISRDNAKNTVYVQMNSLKPEDTAVYYCNAAYVYYYPHYRYAPTAVDYDYWGQGTQVTVSS | low polyreactivity
QVHLVESGGGLVQAGGSLRLSCAASGRTFPYNAMGWYRQAPGKERELVAAISWRGGSTYYADSVKGRFTISRDNAKNTVYLQMNSLKPEDTAVYYCNALYPVSYDHRGDYWGQGTQVTVSS | high polyreactivity
QGQLVESGGGLVQAGGSLRLSCAASGRIVGPNTMGWSRQAPGKERELVAAISSGGGTYYADSVKGRFTISRDNAKNTVYLQMNSLKPEDTAVYYCAADYTTLKLYYWFDYWGQGTHVTVSS | low polyreactivity
QVQLVESGGGLVQAGGSLRLSCAASGSTYYNAMGWYRQAPGKERELVAAIRFRYGSTYYADSVKGRFTISRDNAKNSVYLQMNSLKPEDTAVYYCADDNKRSWRYAYNYWGHGTQVTVSS | high polyreactivity
QVQLVESGGGLVQAGGSLRLSCAASGLIFDSYAMGWYRQAPGKERELVAAITYTGGSTYYADSVKGRFTISRDNAKNTVYLQMNSLKPEDTAVYYCAAVTRYAGRIRYGYWGQGTQVTVSS | high polyreactivity
QVQLVESGGGLVQVGGSLRLSCAASGITLSYYAMGWYRQAPGKEREFVASITVSRTSTYYADSVKGRFTISRDNAKNTVYLQMNSLKPEDTAVYYCAAYAYQYRFSGYGYWGQGTQVTVSS | low polyreactivity
QVQLVESGGGLVQAGGSLRLSCAASGSTFSDYAMGWYRQAPGKERELVAAISRRGGSTYYADSVKGRFTISRDNAKNTVYLQMNSLKPEDTAVYYCAKAAYPWTRMEYWGQGTQVTVSS | high polyreactivity
